Measurements taken from patent publication US12139520B2 (priority 2020, dated 2024).
Numbered stars: 1 amine (or outer) side, 2 acyl side, 3 side chain; on linkers, the order of the positions; unused ones are H or OH. Bridge positions count the residues as written; N and C are the ends. Square brackets hold non-standard residues; d marks the D form. Side chains are listed from the residue outwards. Ends that are not written are not given here. * marks the point of attachment. C20 diacid = O=C(O)CCCCCCCCCCCCCCCCCCC(=O)*; γGlu = O=C(O)[C@H](CCC(=O)[*:2])N[*:1]; Hyp = O=C(O)[C@@H]1C[C@@H](O)CN1; Trx = NC[C@H]1CC[C@H](C(=O)O)CC1; AEEA = NCCOCCOCC(=O)O

T1: hAMY3R (human, UniProt P30988)
T1 sequence 1: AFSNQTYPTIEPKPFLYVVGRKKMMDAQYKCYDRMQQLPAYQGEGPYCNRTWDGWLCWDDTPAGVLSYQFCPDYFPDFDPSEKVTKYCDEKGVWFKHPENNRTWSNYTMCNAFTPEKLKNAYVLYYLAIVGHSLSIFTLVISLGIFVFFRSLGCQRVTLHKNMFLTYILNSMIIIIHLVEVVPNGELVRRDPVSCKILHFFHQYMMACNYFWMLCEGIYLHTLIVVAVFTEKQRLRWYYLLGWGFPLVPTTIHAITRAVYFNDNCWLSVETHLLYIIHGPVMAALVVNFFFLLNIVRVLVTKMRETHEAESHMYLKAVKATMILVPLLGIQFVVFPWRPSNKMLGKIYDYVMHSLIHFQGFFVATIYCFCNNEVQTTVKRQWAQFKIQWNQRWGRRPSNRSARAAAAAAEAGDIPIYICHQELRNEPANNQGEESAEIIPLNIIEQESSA
T1 sequence 2: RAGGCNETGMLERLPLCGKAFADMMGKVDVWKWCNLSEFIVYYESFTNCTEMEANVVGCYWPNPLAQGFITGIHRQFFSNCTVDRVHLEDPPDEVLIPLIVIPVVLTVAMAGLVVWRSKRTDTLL


Legend:
hAMY3R = biological target: T1, hAMY3R; assay: cell-based or functional assay
hAM1R = hAM1R (human, UniProt Q16602); assay: cell-based or functional assay

Row | Binder | hAMY3R EC50 (cAMP) (hAMY3R) [nM] | hAM1R EC50 (cAMP) (hAM1R) [nM]
1 | GCRTGTCTVQRLAHQIYQFTNKDKDNVAPRSKISPQH[Hyp]-NH2 (disulfide 2-7 (inferred); ends not checked) [SEQ ID NO: 219] | 0.171 | 4250
2 | GCRTGTCTVQRLAHQIYQFTDKDKDNVAPRTKVSPQGY [SEQ ID NO: 209] | 0.136 | 1020
3 | KCNTATCATQRLANFLVHSSNNFGAILPSTKIGSNGY [SEQ ID NO: 207] | 0.131 | > 5000
4 | GCRWGTCTVQRLAHQIYQFTDKDKDNVAPSSKISPQT[Hyp]-NH2 (disulfide 2-7 (inferred); ends not checked) [SEQ ID NO: 202] | 0.126 | > 5000
5 | {C20 diacid-γGlu}-KCNTATCTVQRLAHQITQFTDKDKDNVAPPTNVGSNG[Hyp]-NH2 (disulfide 2-7 (inferred); ends not checked) [SEQ ID NO: 22] | 0.008 | > 5000
6 | GCRTGTCTVQRLAHQIHQFTDKDKDNVAPRSKISPQT[Hyp]-NH2 (disulfide 2-7 (inferred); ends not checked) [SEQ ID NO: 228] | 0.205 | > 5000
7 | GCRTGTCTVQRLAHQIWQFTDKFKDNVAPRSKISPQT[Hyp]-NH2 (disulfide 2-7 (inferred); ends not checked) [SEQ ID NO: 213] | 0.153 | > 5000
8 | GCRTGTCTVQRLAHQIYQFTDKFKDNVAPRSKISPQK[Hyp]-NH2 (disulfide 2-7 (inferred); ends not checked) [SEQ ID NO: 206] | 0.13 | > 5000
9 | KCNTATCTVQRLAHQIYQFADKDKDNVAPPTNVGSNG[Hyp]-NH2 (disulfide 2-7 (inferred); ends not checked) [SEQ ID NO: 23] | 0.008 | > 5000
10 | GCRTGTCTVQRLAHQIYQFTDKDKDNVAPRTNISPQG[Hyp]-NH2 (disulfide 2-7 (inferred); ends not checked) [SEQ ID NO: 214] | 0.157 | 2980
11 | GCRTGTCTVQRLAHQIYQFTNKDKDNVAPRSKISPQW[Hyp]-NH2 (disulfide 2-7 (inferred); ends not checked) [SEQ ID NO: 220] | 0.182 | > 5000
12 | {C20 diacid-γGlu}-KCNTLTCTVQRLAHQIYQFTDKDKDNVAPPTNVGSNG[Hyp]-NH2 (disulfide 2-7 (inferred); ends not checked) [SEQ ID NO: 225] | 0.186 | > 5000
13 | GCRFGTCTVQRLAHQIYQFTDKFKDNVAPRSKISPQT[Hyp]-NH2 (disulfide 2-7 (inferred); ends not checked) [SEQ ID NO: 212] | 0.153 | > 5000
14 | GCRTGTCTVQRLAHQIYQFTDKFKDNVAPRSKISPQF[Hyp]-NH2 (disulfide 2-7 (inferred); ends not checked) [SEQ ID NO: 211] | 0.151 | 2760
15 | GCRTGTCTVQRLAHQIYQFTDKFKDNVAPRSKISPQH[Hyp]-NH2 (disulfide 2-7 (inferred); ends not checked) [SEQ ID NO: 201] | 0.126 | 4880
16 | GCRTGTCTVQRLAHQIHQFTNKDKDNVAPRSKISPQT[Hyp]-NH2 (disulfide 2-7 (inferred); ends not checked) [SEQ ID NO: 227] | 0.187 | 4570
17 | GCRTGTCTVQRLAHQIYQFTDKFKDNVAPRSKISPQA[Hyp]-NH2 (disulfide 2-7 (inferred); ends not checked) [SEQ ID NO: 218] | 0.169 | > 5000

Row | Binder | hAMY3R EC50 (cAMP) (hAMY3R) [nM] | hAM1R EC50 (cAMP) (hAM1R) [nM]
18 | GCRTGTCTVQRLAHQIYQFTDKFKDNVAPRSKISPQP[Hyp] (ends and bridges not checked) [SEQ ID NO: 203] | 0.127 | > 5000
19 | {C20 diacid-Trx-γGlu-AEEA-AEEA}-K([AEEA-AEEA-γGlu-Trx-C20 diacid])CNTATCTVQRLAEQIYQFTDKDKDNVAPPTNVGSNG[Hyp] (disulfide 2-7 (inferred); ends not checked) [SEQ ID NO: 221] | 0.184 | > 5000
20 | GCRTGTCTVQRLAHQIYQFTDKDKDNVAPRTKVSPQG[Hyp]-NH2 (disulfide 2-7 (inferred); ends not checked) [SEQ ID NO: 216] | 0.164 | 2980
21 | GCRMGTCTVQRLAHQIYQFTDKDKDNVAPSSKISPQT[Hyp]-NH2 (disulfide 2-7 (inferred); ends not checked) [SEQ ID NO: 222] | 0.184 | > 5000
22 | GCRFGTCTVQRLAHQLYQFTDKDKDNVAPRSKISPQT[Hyp]-NH2 (disulfide 2-7 (inferred); ends not checked) [SEQ ID NO: 217] | 0.167 | > 5000
23 | {C20 diacid-γGlu}-GCRFGTCTVQRLAHFLYQFTDKDKDNVAPRTNVGPQGY-NH2 (disulfide 2-7 (inferred); ends not checked) [SEQ ID NO: 200] | 0.126 | 38.2
24 | KCNTATCTVQRLAHQAYQFTDKDKDNVAPPTNVGSNG[Hyp]-NH2 (disulfide 2-7 (inferred); ends not checked) [SEQ ID NO: 210] | 0.137 | > 5000
25 | {C20 diacid-γGlu}-GCRFGTCTVQRLAHFLYQFTDKDKDNVAPRTNVGSNTY-NH2 (disulfide 2-7 (inferred); ends not checked) [SEQ ID NO: 208] | 0.133 | 242
26 | GCRTGTCTVQRLAHQIYQFTDKFKDNVAPRSKISPQTM [SEQ ID NO: 215] | 0.161 | > 5000
27 | GCRTGTCTVQRLAHQIYQFTNKDKDNVAPRSKISPQTW [SEQ ID NO: 226] | 0.186 | > 5000
28 | GCRTGTCTVQRLAHQIYQFTDKDKDNVAPRSNVSPQG[Hyp]-NH2 (disulfide 2-7 (inferred); ends not checked) [SEQ ID NO: 224] | 0.186 | 2980
29 | {C20 diacid-γGlu}-GCRFGTCTVQRLAHFLYQFTDKDKDNVAPRTKVGSNGY-NH2 (disulfide 2-7 (inferred); ends not checked) [SEQ ID NO: 223] | 0.186 | 47.7
30 | GCRTGTCTVQRLAHQIYQFTDKDKDNVAPRSKVSPNG[Hyp]-NH2 (disulfide 2-7 (inferred); ends not checked) [SEQ ID NO: 204] | 0.129 | 2980
31 | GCRFGTCTVQRLAHQIYQFTDKDKDNVAPRSNIGPQG[Hyp]-NH2 (disulfide 2-7 (inferred); ends not checked) [SEQ ID NO: 229] | 0.207 | 2980
32 | KCRFGTCTVQRLAHQIYQFTDKDKDNVAPRSKISPQT[Hyp]-NH2 (disulfide 2-7 (inferred); ends not checked) [SEQ ID NO: 205] | 0.13 | 3230
33 | {C20 diacid-γGlu}-KCNTATCTVQRLANQIYQFTDKDKDNVAPPTNVGSNG[Hyp]-NH2 (disulfide 2-7 (inferred); ends not checked) [SEQ ID NO: 21] | 0.008 | > 5000
